Assay results published in patent US20160287682.

Tested on: Notch1, overexpressed in 293T cells

Adamts1, V5 tagged, overexpressed in 293T cells
S2 cleavage of Notch1: Adamts1 blocks S2 cleavage of Notch1
